From US12331106B2, “Anti-angiopoietin-2 antibodies that induce Tie2 activation” (Institute for Basic Science, priority 2018, dated 2025)
“Also recorded” adds a separate entry of the source. Where two headings read alike, the source gives them in different places.

Experiments:
hAng2-RBD = target: T1, hAng2-RBD (Homo sapiens, UniProt O15123); assay type: binding; conditions: for Relative Uptake (Da) Δ: 4B9
T1 construct: made in house; host or cells: HEK293F
T1 sequence (O15123 276-496): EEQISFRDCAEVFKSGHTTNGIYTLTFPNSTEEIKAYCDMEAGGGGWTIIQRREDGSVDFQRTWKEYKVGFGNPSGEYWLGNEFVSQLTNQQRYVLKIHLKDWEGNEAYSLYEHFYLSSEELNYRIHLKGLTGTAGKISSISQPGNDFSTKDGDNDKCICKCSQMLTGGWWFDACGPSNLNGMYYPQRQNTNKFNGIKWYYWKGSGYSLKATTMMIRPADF
Description: The antigenic determinants (epitopes) of hAng2 recognized by mouse monoclonal antibodies, 2C8 and 4B9, were analyzed by HDX-MS (Hydrogen/deuterium exchange-mass spectrometry) technique. HDX-MS analysis methods are described in the following articles; Houde D, Engen J R (2013) Methods Mol. Biol. 988: 269-89 and Houde et al. (2011) J. Pharm. Sci. 100 (6), 2071.
Recombinant hAng2-RBD protein was used to analyze the epitopes of antibodies 2C8 and 4B9. […] The prepared hAng2-RBD/antibody complexes were diluted 15 times with deuterium labeling buffer, labeled at various time, and then quenched with the same volume of quenching buffer. The labeling reaction time was 0 min (undeuterium), 0.33 min, 10 min, 60 min and 240 min. However, in undeuterium condition, the deuterium labeling buffer was replaced with equilibrium buffer and the reaction was immediately stopped with quenching buffer. For mass spectrometry, the deuterium labeled hAng2-RBD/antibody samples were loaded on a pepsin column and peptide digestion was proceeded.
The deuterium uptake difference between hAng2-RBD alone and the hAng2-RBD-antibody complex conditions was comparatively analyzed, and a region showing a distinct decrease in the deuterium uptake is either a peptide to which the antibody binds directly, or a structurally changed region. When the deuterium uptake difference between hAng2-RBD alone and the hAng2-RBD-antibody complex was 0.5-1 Da or more, it was considered significant.
In the case of antibody 4B9, it cannot be ruled out that an undetermined region (residues 25 to 40 of SEQ ID NO: 2) can be included in the scope of the epitope. The epitope analysis results for each antibody are shown in different colors on the 3D structure of hAng2-RBD, which was generated using PyMol software (FIG. 2).

hAng2 = target: T2, hAng2 (Homo sapiens, UniProt O15123); assay: OCTET affinity of mouse monoclonal anti-Ang2 antibodies against hAng2; conditions: hAng2 fixed on AR2G biosensor, 1:1 binding model
T2 sequence (O15123 19-496): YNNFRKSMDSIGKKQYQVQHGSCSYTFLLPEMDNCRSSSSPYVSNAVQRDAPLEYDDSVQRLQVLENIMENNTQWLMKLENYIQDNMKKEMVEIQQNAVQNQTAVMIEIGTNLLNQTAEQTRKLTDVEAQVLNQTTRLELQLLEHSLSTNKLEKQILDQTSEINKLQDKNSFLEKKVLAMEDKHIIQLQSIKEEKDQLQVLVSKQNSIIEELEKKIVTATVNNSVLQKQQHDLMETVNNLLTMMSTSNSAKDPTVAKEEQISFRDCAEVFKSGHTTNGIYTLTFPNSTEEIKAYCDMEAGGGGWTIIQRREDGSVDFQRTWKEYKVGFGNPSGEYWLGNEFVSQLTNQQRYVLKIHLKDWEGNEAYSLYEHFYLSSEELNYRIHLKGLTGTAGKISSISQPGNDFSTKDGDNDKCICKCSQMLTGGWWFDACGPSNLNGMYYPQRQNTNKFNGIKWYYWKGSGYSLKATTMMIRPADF
Description: The affinity of mouse monoclonal antibody against hAng2 was measured using OCTET® system (ForteBio, real-time, label-free bio-layer interferometry system for determination of affinity, kinetics, and concentration). Specifically, buffer and samples were measured in total 200 μl/well using Black 96-well plates (96 well F-type black plates, Greiner). The biosensor used for affinity measurements was hydrated for 10 min before measurement with AR2G tip (ForteBio OCTET®). After the hydration, hAng2 was diluted in 10 mM sodium acetate, pH 6.0 buffer at a concentration of 10 μg/ml, fixed on AR2G biosensor, and blocked with 1M ethanolamine. The mouse monoclonal anti-Ang2 antibodies were diluted to 50, 25, 12.5, 6.25, 3.125, and 0 nM with 1× kinetic buffer, and subjected to association for 300 seconds and dissociation for 900 seconds. For affinity measurement (KD), the association rate (K-on) and dissociation rate (K-off) were analyzed by binding curve (global) and fitted to 1:1 binding model using OCTET® data analysis v9.0.0.10 program.

[1] = residues 14-23 (SEQ ID NO: 2), exposure time 0.00 min
[2] = residues 14-23 (SEQ ID NO: 2), exposure time 0.33 min
[3] = residues 14-23 (SEQ ID NO: 2), exposure time 10.00 min
[4] = residues 14-23 (SEQ ID NO: 2), exposure time 60.00 min
[5] = residues 14-23 (SEQ ID NO: 2), exposure time 240.00 min
[6] = residues 14-24 (SEQ ID NO: 2), exposure time 0.00 min
[7] = residues 14-24 (SEQ ID NO: 2), exposure time 0.33 min
[8] = residues 14-24 (SEQ ID NO: 2), exposure time 10.00 min
[9] = residues 14-24 (SEQ ID NO: 2), exposure time 60.00 min
[10] = residues 14-24 (SEQ ID NO: 2), exposure time 240.00 min
[11] = residues 41-47 (SEQ ID NO: 2), exposure time 0.00 min
[12] = residues 41-47 (SEQ ID NO: 2), exposure time 0.33 min
[13] = residues 41-47 (SEQ ID NO: 2), exposure time 10.00 min
[14] = residues 41-47 (SEQ ID NO: 2), exposure time 60.00 min
[15] = residues 41-47 (SEQ ID NO: 2), exposure time 240.00 min
[16] = residues 47-60 (SEQ ID NO: 2), exposure time 0.00 min
[17] = residues 47-60 (SEQ ID NO: 2), exposure time 0.33 min
[18] = residues 47-60 (SEQ ID NO: 2), exposure time 10.00 min
[19] = residues 47-60 (SEQ ID NO: 2), exposure time 60.00 min
[20] = residues 47-60 (SEQ ID NO: 2), exposure time 240.00 min

- Relative Uptake (Da) Δ (hAng2-RBD; [1]): 0.25 Da
- Relative Uptake (Da) Δ (hAng2-RBD; [2]): 0.34 Da
- Relative Uptake (Da) Δ (hAng2-RBD; [3]): 0.83 Da
- Relative Uptake (Da) Δ (hAng2-RBD; [4]): 0.78 Da
- Relative Uptake (Da) Δ (hAng2-RBD; [5]): 0.60 Da
- Relative Uptake (Da) Δ (hAng2-RBD; [6]): 0.01 Da
- Relative Uptake (Da) Δ (hAng2-RBD; [7]): 0.33 Da
- Relative Uptake (Da) Δ (hAng2-RBD; [8]): 1.50 Da
- Relative Uptake (Da) Δ (hAng2-RBD; [9]): 1.35 Da
- Relative Uptake (Da) Δ (hAng2-RBD; [10]): 0.80 Da
- Relative Uptake (Da) Δ (hAng2-RBD; [11]): 0.15 Da
- Relative Uptake (Da) Δ (hAng2-RBD; [12]): 1.02 Da
- Relative Uptake (Da) Δ (hAng2-RBD; [13]): 0.92 Da
- Relative Uptake (Da) Δ (hAng2-RBD; [14]): 1.15 Da
- Relative Uptake (Da) Δ (hAng2-RBD; [15]): 1.18 Da
- Relative Uptake (Da) Δ (hAng2-RBD; [16]): 0.05 Da
- Relative Uptake (Da) Δ (hAng2-RBD; [17]): −0.13 Da
- Relative Uptake (Da) Δ (hAng2-RBD; [18]): −0.06 Da
- Relative Uptake (Da) Δ (hAng2-RBD; [19]): −0.01 Da
- Relative Uptake (Da) Δ (hAng2-RBD; [20]): −0.11 Da
- Relative Uptake (Da) hAng2-RBD + 4B9 (hAng2-RBD; [1]): 0.55 Da
- Relative Uptake (Da) hAng2-RBD + 4B9 (hAng2-RBD; [2]): 0.97 Da
- Relative Uptake (Da) hAng2-RBD + 4B9 (hAng2-RBD; [3]): 1.38 Da
- Relative Uptake (Da) hAng2-RBD + 4B9 (hAng2-RBD; [4]): 1.49 Da
- Relative Uptake (Da) hAng2-RBD + 4B9 (hAng2-RBD; [5]): 1.66 Da
- Relative Uptake (Da) hAng2-RBD + 4B9 (hAng2-RBD; [6]): 0.76 Da
- Relative Uptake (Da) hAng2-RBD + 4B9 (hAng2-RBD; [7]): 1.27 Da
- Relative Uptake (Da) hAng2-RBD + 4B9 (hAng2-RBD; [8]): 1.75 Da
- Relative Uptake (Da) hAng2-RBD + 4B9 (hAng2-RBD; [9]): 2.05 Da
- Relative Uptake (Da) hAng2-RBD + 4B9 (hAng2-RBD; [10]): 2.61 Da
- Relative Uptake (Da) hAng2-RBD + 4B9 (hAng2-RBD; [11]): 0.16 Da
- Relative Uptake (Da) hAng2-RBD + 4B9 (hAng2-RBD; [12]): 0.20 Da
- Relative Uptake (Da) hAng2-RBD + 4B9 (hAng2-RBD; [13]): 0.43 Da
- Relative Uptake (Da) hAng2-RBD + 4B9 (hAng2-RBD; [14]): 0.54 Da
- Relative Uptake (Da) hAng2-RBD + 4B9 (hAng2-RBD; [15]): 0.61 Da
- Relative Uptake (Da) hAng2-RBD + 4B9 (hAng2-RBD; [16]): 0.96 Da
- Relative Uptake (Da) hAng2-RBD + 4B9 (hAng2-RBD; [17]): 1.94 Da
- Relative Uptake (Da) hAng2-RBD + 4B9 (hAng2-RBD; [18]): 2.53 Da
- Relative Uptake (Da) hAng2-RBD + 4B9 (hAng2-RBD; [19]): 2.69 Da
- Relative Uptake (Da) hAng2-RBD + 4B9 (hAng2-RBD; [20]): 3.06 Da
- Koff (hAng2): 5.04e-07 s⁻¹
- Kon (hAng2): 137000 M⁻¹ s⁻¹
B1: 4B9: mouse monoclonal anti-Ang2 antibody; VH SEQ ID NO: 9, VL SEQ ID NO: 11; hybridoma KCLRF-BP-00418 (antibody, V domains shown)
VH: EVQLVESGGGLVKPGGSLKLSCAASGFTFSDYYMYWVRQTPEKRLEWVATISVGGSFTYYPDSVKGRFTISRDNAKNNLYLQMSSLKSEDTAMYYCARDWGLRPWFVYWGQGTLVTVSA
VL: DIVMTQSHKFMSTSVGDRVSITCKASQDVSTAVAWYQQKPGQSPKLLIYWASTRHTGVPDRFTGSGSGTDYTLTISSVQAEDLALYYCQQHYSTPPTFGSGTKLEIK
modifications: Heavy Chain Variable Region; Light Chain Variable Region
notes: mouse monoclonal anti-Ang2 antibody; hybridoma KCLRF-BP-00418
- epitope of hAng2-RBD to which the antibody binds (hAng2-RBD; deuterium uptake difference 0.5-1 Da or more considered significant): residues 14 to 24 of SEQ ID NO: 2; also recorded: residues 41 to 47 of SEQ ID NO: 2
